The text below walks through data of patent US6958240, “Inhibition of major groove DNA binding proteins by modified polyamides” (California Instiute of Technology).

For data set [1], the target named is T1, GCN4 (222-281), bZIP DNA-binding domain (UniProt P03069 P03069:222-281). Briefly: EMSA; bound near saturation at 200 nM GCN4; 10 mM bisTris pH 7.0, 100 mM NaCl, 1 mM DTT, 1 mM EDTA, 50 ug/mL poly(dI-dC), 22 C; inhibited by polyamides 3, 5 and 13, not by 1 or 4. To be noted: protein: synthetic; tags: none; prepared by solid phase peptide synthesis; chain copies: 2 (inferred); label: 5'-32P. The procedure: (§1) For gel mobility shifts, polyamide was incubated with radiolabeled synthetic DNA duplex (10 kcpm) in 40 µL reaction volumes of bisTris (10 mM, pH 7.0), NaCl (100 mM), DTT (1 mM), EDTA (1 mM), and poly(dI-dC)·poly(dI-dC) (50 µg/mL) for 16 hours at 22° C. (20 mM MOPS, pH 7.0, 140 mM KCl, 10 mM NaCl, 1 mM MgCl_2, 1 mM spermine was used to model ionic conditions in vivo). GCN4 (222–281) was added and equilibrated for 30 minutes. Loading buffer (15% Ficoll, 0.025% bromophenol blue) (10 µL) was added and 10 µL was immediately loaded onto a running 8% (29:1, acrylamide:bis-acrylamide) polyacrylamide gel (0.5×TBE, 280 V, 0.8 mm, 13 cm). Sufficient separation of the free DNA and the DNA·GCN4 (222–281) complexes was achieved within 45 minutes. Gels were dried and exposed to a storage phosphor screen (Molecular Dynamics) (Johnston, et al. (1990) *Electrophoresis* 11, 355).
T1 sequence (P03069 222-281, one chain of several): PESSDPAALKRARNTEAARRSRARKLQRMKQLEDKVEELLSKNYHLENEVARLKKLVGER
(§2) ImPyPyPy-γ-PyPyPyPy-β-polyamides (1 and 3) target the six base pair 5'-TGTTAT-3' site adjacent to the GCN4 binding site of ARE-1 (FIG. 6). ImImPyPy-γ-ImPyPyPy-β-polyamides (2 and 4) were designed to bind 5'-TGGTCT-3' adjacent to the GCN4 site in ARE-2 (FIG. 6).
(§3) The ability of polyamides to inhibit GCN4 (222–281) binding was evaluated using the gel mobility shift assay. […]
For orientation: Mobility shift assays separate free from complexed probe on a gel.

The target in data set [2] is T1, GCN4 (222-281), bZIP DNA-binding domain. Briefly: EMSA; bound near saturation at 200 nM GCN4; same buffer, 22 C; inhibited by matched polyamides 4 and 6, not by 2 or 3. To be noted: protein: synthetic; tags: none; prepared by solid phase peptide synthesis; chain copies: 2 (inferred); label: 5'-32P. On the procedure: as §1, §2, §3

B1: ARE-1 (dsDNA)
DNA 1: CCGGATCCATGGTTGCTGACTAATTGTTATCCTCTAGAGTCGACC
DNA 2: GGTCGACTCTAGAGGATAACAATTAGTCAGCAACCATGGATCCGG
Take B1: the binding result in data set [1] is “binds”.

B2: ARE-2 (dsDNA)
DNA 1: CCGGATCCATGGTTGCTGACTAATTGGTCTCCTCTAGAGTCGACC
DNA 2: GGTCGACTCTAGAGGAGACCAATTAGTCAGCAACCATGGATCCGG
Consider B2, for which, in data set [2], the binding result is reported as “binds”.
